# Patent EP4692114A1, “CALCITONIN ANALOGUE, AND DERIVATIVE THEREOF AND USE THEREOF” (Hangzhou Sciwind Biosciences Co., Ltd., priority 2023, dated 2024)
# *1 amine or outer side, *2 acyl side, *3 side chain or, on linkers, in order; H or OH if unused. [ ]: non-standard residue; d: D form. The star is where a group is joined. C20 diacid = O=C(O)CCCCCCCCCCCCCCCCCCC(=O)*; C18 diacid = O=C(O)CCCCCCCCCCCCCCCCC(=O)*; γGlu = O=C(O)[C@H](CCC(=O)[*:2])N[*:1]; AEEA = NCCOCCOCC(=O)O
# T1: human amylin receptor (AMY3) on CHO-K1/Gal5/AMY3 cells (human, UniProt P30988 25-474; O60896 24-148)
# T1 sequence (looked up) 1: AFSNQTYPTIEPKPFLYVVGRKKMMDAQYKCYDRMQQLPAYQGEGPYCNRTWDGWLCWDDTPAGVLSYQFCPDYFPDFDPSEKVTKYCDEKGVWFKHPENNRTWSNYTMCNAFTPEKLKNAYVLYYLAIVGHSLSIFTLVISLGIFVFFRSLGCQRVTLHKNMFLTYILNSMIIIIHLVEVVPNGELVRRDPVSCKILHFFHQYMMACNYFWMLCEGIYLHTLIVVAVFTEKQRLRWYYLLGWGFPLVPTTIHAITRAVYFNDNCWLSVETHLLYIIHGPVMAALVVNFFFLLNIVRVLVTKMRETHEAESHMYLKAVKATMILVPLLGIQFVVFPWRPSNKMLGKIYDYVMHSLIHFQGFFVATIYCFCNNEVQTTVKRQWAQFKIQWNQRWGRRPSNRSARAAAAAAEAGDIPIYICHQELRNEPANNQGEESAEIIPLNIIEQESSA
# T1 sequence (looked up) 2: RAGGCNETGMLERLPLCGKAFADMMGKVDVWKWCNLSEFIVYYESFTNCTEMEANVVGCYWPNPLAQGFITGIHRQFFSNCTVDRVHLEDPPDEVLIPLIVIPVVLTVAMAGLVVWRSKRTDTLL
# Biological target: T1, human amylin receptor (AMY3) on …
# Test: cell-based or functional assay
row,"EC50/nM, CRE-luciferase in amylin receptor/CRE-luc CHO cells",Binder
1,0.069 nM,{C20 diacid}-EASQLSTAVLGRLSDELHRLQDYPRTDVGSGSP-NH2 (SMILES CC(C)C[C@H](NC(=O)[C@H](CCCNC(=N)N)NC(=O)CNC(=O)[C@H](CC(C)C)NC(=O)[C@@H](NC(=O)[C@H](C)NC(=O)[C@@H](NC(=O)[C@H](CO)NC(=O)[C@H](CC(C)C)NC(=O)[C@H](CCC(N)=O)NC(=O)[C@H](CO)NC(=O)[C@H](C)NC(=O)[C@H](CCC(=O)O)NC(=O)CCCCCCCCCCCCCCCCCCC(=O)O)[C@@H](C)O)C(C)C)C(=O)N[C@@H](CO)C(=O)N[C@@H](CC(=O)O)C(=O)N[C@@H](CCC(=O)O)C(=O)N[C@@H](CC(C)C)C(=O)N[C@@H](Cc1c[nH]cn1)C(=O)N[C@@H](CCCNC(=N)N)C(=O)N[C@@H](CC(C)C)C(=O)N[C@@H](CCC(N)=O)C(=O)N[C@@H](CC(=O)O)C(=O)N[C@@H](Cc1ccc(O)cc1)C(=O)N1CCC[C@H]1C(=O)N[C@@H](CCCNC(=N)N)C(=O)N[C@H](C(=O)N[C@@H](CC(=O)O)C(=O)N[C@H](C(=O)NCC(=O)N[C@@H](CO)C(=O)NCC(=O)N[C@@H](CO)C(=O)N1CCC[C@H]1C(N)=O)C(C)C)[C@@H](C)O) [calcitonin derivative M41]
2,0.017 nM,{C20 diacid-γGlu}-ASQLSTAVLGRLSEELHRLQDYPRTDVGSGSP-NH2 (SMILES CC(C)C[C@H](NC(=O)[C@H](CCCNC(=N)N)NC(=O)CNC(=O)[C@H](CC(C)C)NC(=O)[C@@H](NC(=O)[C@H](C)NC(=O)[C@@H](NC(=O)[C@H](CO)NC(=O)[C@H](CC(C)C)NC(=O)[C@H](CCC(N)=O)NC(=O)[C@H](CO)NC(=O)[C@H](C)NC(=O)CC[C@H](NC(=O)CCCCCCCCCCCCCCCCCCC(=O)O)C(=O)O)[C@@H](C)O)C(C)C)C(=O)N[C@@H](CO)C(=O)N[C@@H](CCC(=O)O)C(=O)N[C@@H](CCC(=O)O)C(=O)N[C@@H](CC(C)C)C(=O)N[C@@H](Cc1c[nH]cn1)C(=O)N[C@@H](CCCNC(=N)N)C(=O)N[C@@H](CC(C)C)C(=O)N[C@@H](CCC(N)=O)C(=O)N[C@@H](CC(=O)O)C(=O)N[C@@H](Cc1ccc(O)cc1)C(=O)N1CCC[C@H]1C(=O)N[C@@H](CCCNC(=N)N)C(=O)N[C@H](C(=O)N[C@@H](CC(=O)O)C(=O)N[C@H](C(=O)NCC(=O)N[C@@H](CO)C(=O)NCC(=O)N[C@@H](CO)C(=O)N1CCC[C@H]1C(N)=O)C(C)C)[C@@H](C)O) [calcitonin derivative M9]
3,0.016 nM,{C18 diacid}-EASQLSTAVLGRLSQELHRLQDYPRTDVGSGSP-NH2 (SMILES CC(C)C[C@H](NC(=O)[C@H](CCCNC(=N)N)NC(=O)CNC(=O)[C@H](CC(C)C)NC(=O)[C@@H](NC(=O)[C@H](C)NC(=O)[C@@H](NC(=O)[C@H](CO)NC(=O)[C@H](CC(C)C)NC(=O)[C@H](CCC(N)=O)NC(=O)[C@H](CO)NC(=O)[C@H](C)NC(=O)[C@H](CCC(=O)O)NC(=O)CCCCCCCCCCCCCCCCC(=O)O)[C@@H](C)O)C(C)C)C(=O)N[C@@H](CO)C(=O)N[C@@H](CCC(N)=O)C(=O)N[C@@H](CCC(=O)O)C(=O)N[C@@H](CC(C)C)C(=O)N[C@@H](Cc1c[nH]cn1)C(=O)N[C@@H](CCCNC(=N)N)C(=O)N[C@@H](CC(C)C)C(=O)N[C@@H](CCC(N)=O)C(=O)N[C@@H](CC(=O)O)C(=O)N[C@@H](Cc1ccc(O)cc1)C(=O)N1CCC[C@H]1C(=O)N[C@@H](CCCNC(=N)N)C(=O)N[C@H](C(=O)N[C@@H](CC(=O)O)C(=O)N[C@H](C(=O)NCC(=O)N[C@@H](CO)C(=O)NCC(=O)N[C@@H](CO)C(=O)N1CCC[C@H]1C(N)=O)C(C)C)[C@@H](C)O) [calcitonin derivative M24]

# Continued, binder first:
row,Binder,"EC50/nM, CRE-luciferase in amylin receptor/CRE-luc CHO cells"
1,{C20 diacid-γGlu-AEEA-AEEA}-ASQLSTAVLGRLSEELHRLQDYPRTDVGSGSP-NH2 (SMILES CC(C)C[C@H](NC(=O)[C@H](CCCNC(=N)N)NC(=O)CNC(=O)[C@H](CC(C)C)NC(=O)[C@@H](NC(=O)[C@H](C)NC(=O)[C@@H](NC(=O)[C@H](CO)NC(=O)[C@H](CC(C)C)NC(=O)[C@H](CCC(N)=O)NC(=O)[C@H](CO)NC(=O)[C@H](C)NC(=O)COCCOCCNC(=O)COCCOCCNC(=O)CC[C@H](NC(=O)CCCCCCCCCCCCCCCCCCC(=O)O)C(=O)O)[C@@H](C)O)C(C)C)C(=O)N[C@@H](CO)C(=O)N[C@@H](CCC(=O)O)C(=O)N[C@@H](CCC(=O)O)C(=O)N[C@@H](CC(C)C)C(=O)N[C@@H](Cc1c[nH]cn1)C(=O)N[C@@H](CCCNC(=N)N)C(=O)N[C@@H](CC(C)C)C(=O)N[C@@H](CCC(N)=O)C(=O)N[C@@H](CC(=O)O)C(=O)N[C@@H](Cc1ccc(O)cc1)C(=O)N1CCC[C@H]1C(=O)N[C@@H](CCCNC(=N)N)C(=O)N[C@H](C(=O)N[C@@H](CC(=O)O)C(=O)N[C@H](C(=O)NCC(=O)N[C@@H](CO)C(=O)NCC(=O)N[C@@H](CO)C(=O)N1CCC[C@H]1C(N)=O)C(C)C)[C@@H](C)O) [calcitonin derivative M57],0.017 nM
2,{C20 diacid-γGlu}-LSQLSTLVLGRLSQELHRLQDYPRTDVGSGSP-NH2 (SMILES CC(C)C[C@H](NC(=O)CC[C@H](NC(=O)CCCCCCCCCCCCCCCCCCC(=O)O)C(=O)O)C(=O)N[C@@H](CO)C(=O)N[C@@H](CCC(N)=O)C(=O)N[C@@H](CC(C)C)C(=O)N[C@@H](CO)C(=O)N[C@H](C(=O)N[C@@H](CC(C)C)C(=O)N[C@H](C(=O)N[C@@H](CC(C)C)C(=O)NCC(=O)N[C@@H](CCCNC(=N)N)C(=O)N[C@@H](CC(C)C)C(=O)N[C@@H](CO)C(=O)N[C@@H](CCC(N)=O)C(=O)N[C@@H](CCC(=O)O)C(=O)N[C@@H](CC(C)C)C(=O)N[C@@H](Cc1c[nH]cn1)C(=O)N[C@@H](CCCNC(=N)N)C(=O)N[C@@H](CC(C)C)C(=O)N[C@@H](CCC(N)=O)C(=O)N[C@@H](CC(=O)O)C(=O)N[C@@H](Cc1ccc(O)cc1)C(=O)N1CCC[C@H]1C(=O)N[C@@H](CCCNC(=N)N)C(=O)N[C@H](C(=O)N[C@@H](CC(=O)O)C(=O)N[C@H](C(=O)NCC(=O)N[C@@H](CO)C(=O)NCC(=O)N[C@@H](CO)C(=O)N1CCC[C@H]1C(N)=O)C(C)C)[C@@H](C)O)C(C)C)[C@@H](C)O) [calcitonin derivative M25],0.016 nM
3,{C20 diacid}-E[AEEA][AEEA]ASQLSTAVLGRLSEELHRLQDYPRTDVGSGSP-NH2 (SMILES CC(C)C[C@H](NC(=O)[C@H](CCCNC(=N)N)NC(=O)CNC(=O)[C@H](CC(C)C)NC(=O)[C@@H](NC(=O)[C@H](C)NC(=O)[C@@H](NC(=O)[C@H](CO)NC(=O)[C@H](CC(C)C)NC(=O)[C@H](CCC(N)=O)NC(=O)[C@H](CO)NC(=O)[C@H](C)NC(=O)COCCOCCNC(=O)COCCOCCNC(=O)[C@H](CCC(=O)O)NC(=O)CCCCCCCCCCCCCCCCCCC(=O)O)[C@@H](C)O)C(C)C)C(=O)N[C@@H](CO)C(=O)N[C@@H](CCC(=O)O)C(=O)N[C@@H](CCC(=O)O)C(=O)N[C@@H](CC(C)C)C(=O)N[C@@H](Cc1c[nH]cn1)C(=O)N[C@@H](CCCNC(=N)N)C(=O)N[C@@H](CC(C)C)C(=O)N[C@@H](CCC(N)=O)C(=O)N[C@@H](CC(=O)O)C(=O)N[C@@H](Cc1ccc(O)cc1)C(=O)N1CCC[C@H]1C(=O)N[C@@H](CCCNC(=N)N)C(=O)N[C@H](C(=O)N[C@@H](CC(=O)O)C(=O)N[C@H](C(=O)NCC(=O)N[C@@H](CO)C(=O)NCC(=O)N[C@@H](CO)C(=O)N1CCC[C@H]1C(N)=O)C(C)C)[C@@H](C)O) [calcitonin derivative M58],0.017 nM
4,{C20 diacid-γGlu}-ASQLSTAVLGRLSQELHRLQDYPRTDVGAGSP-NH2 (SMILES CC(C)C[C@H](NC(=O)[C@H](CCCNC(=N)N)NC(=O)CNC(=O)[C@H](CC(C)C)NC(=O)[C@@H](NC(=O)[C@H](C)NC(=O)[C@@H](NC(=O)[C@H](CO)NC(=O)[C@H](CC(C)C)NC(=O)[C@H](CCC(N)=O)NC(=O)[C@H](CO)NC(=O)[C@H](C)NC(=O)CC[C@H](NC(=O)CCCCCCCCCCCCCCCCCCC(=O)O)C(=O)O)[C@@H](C)O)C(C)C)C(=O)N[C@@H](CO)C(=O)N[C@@H](CCC(N)=O)C(=O)N[C@@H](CCC(=O)O)C(=O)N[C@@H](CC(C)C)C(=O)N[C@@H](Cc1c[nH]cn1)C(=O)N[C@@H](CCCNC(=N)N)C(=O)N[C@@H](CC(C)C)C(=O)N[C@@H](CCC(N)=O)C(=O)N[C@@H](CC(=O)O)C(=O)N[C@@H](Cc1ccc(O)cc1)C(=O)N1CCC[C@H]1C(=O)N[C@@H](CCCNC(=N)N)C(=O)N[C@H](C(=O)N[C@@H](CC(=O)O)C(=O)N[C@H](C(=O)NCC(=O)N[C@@H](C)C(=O)NCC(=O)N[C@@H](CO)C(=O)N1CCC[C@H]1C(N)=O)C(C)C)[C@@H](C)O) [calcitonin derivative M19],0.016 nM
